In publication PMC2956136 one finds drop in response units with 5 μM Iβ1A against the DMSO control data, which are given here for one substance.

For the experiment, the target named is GST-RanQ69LGTP (UniProt P62826). The experiment in a line: SPR. (In general: SPR reads the build-up and loss of mass on a sensor chip optically.)

As for “importin β (from UniProt Q14974 1-876) (natural protein; other documents disagree on this pair)”, the drop in response units with 5 μM Iβ1A against the DMSO control stood at 70%.
